Article PMC10853764
Changes are numbered by the printed parent chain.

Experiments:
[1] = molecular target: Caulobacter crescentus full length DriD with His-tag (Caulobacter crescentus); experiment: SEC
[2] = molecular target: Caulobacter crescentus full length DriD, tag-free (Caulobacter crescentus); experiment: mass photometry
[3] = molecular target: Caulobacter crescentus full length DriD, tag-free (Caulobacter crescentus); experiment: cross-linking
[4] = molecular target: DriD(V73P-F74P) with His-tag (Caulobacter crescentus); experiment: SEC
[5] = molecular target: DriD(L10E) with His-tag (Caulobacter crescentus); experiment: SEC
DriD WT [6] = molecular target: T1, DriD WT (Caulobacter crescentus, UniProt Q9A999 5-331); experiment: fluorescence polarization
T1 sequence: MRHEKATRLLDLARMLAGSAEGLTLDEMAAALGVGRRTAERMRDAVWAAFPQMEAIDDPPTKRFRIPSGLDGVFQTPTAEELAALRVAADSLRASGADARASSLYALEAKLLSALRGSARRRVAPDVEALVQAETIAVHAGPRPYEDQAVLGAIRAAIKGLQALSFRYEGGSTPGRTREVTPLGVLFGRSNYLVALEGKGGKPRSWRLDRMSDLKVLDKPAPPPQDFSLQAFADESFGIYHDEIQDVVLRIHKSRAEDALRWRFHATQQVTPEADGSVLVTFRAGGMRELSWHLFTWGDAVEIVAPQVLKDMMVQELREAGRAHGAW

DriD WT [7] = molecular target: T1, DriD WT; experiment: fluorescence polarization; remark: listed apart in the source
DriD(E40K) = molecular target: T2, DriD(E40K) (Caulobacter crescentus, UniProt Q9A999 5-331, E44K); experiment: fluorescence polarization
T2 sequence: T1 sequence with E40K

DriD(E40A) = molecular target: T3, DriD(E40A) (Caulobacter crescentus, UniProt Q9A999 5-331, E44A); experiment: fluorescence polarization
T3 sequence: T1 sequence with E40A

DriD(L10E) = molecular target: T4, DriD(L10E) (Caulobacter crescentus, UniProt Q9A999 5-331, L14E); experiment: fluorescence polarization
T4 sequence: T1 sequence with L10E

DriD(V73P-F74P) = molecular target: T5, DriD(V73P-F74P) (Caulobacter crescentus, UniProt Q9A999 5-331, V77P;F78P); experiment: fluorescence polarization
T5 sequence: T1 sequence with V73P, F74P

DriD(T61A-K62A) = molecular target: T6, DriD(T61A-K62A) (Caulobacter crescentus, UniProt Q9A999 5-331, T65A;K66A); experiment: fluorescence polarization
T6 sequence: T1 sequence with T61A, K62A

DriD WT [8] = molecular target: T1, DriD WT; experiment: X-ray crystallography 2.74 A

Caulobacter crescentus full length DriD with His-tag (natural protein)
stoichiometry N [1]: 2

Caulobacter crescentus full length DriD, tag-free (natural protein)
stoichiometry N [2]: 2
stoichiometry N [3]: 2

DriD(V73P-F74P) with His-tag (natural protein)
stoichiometry N [4]: 2

DriD(L10E) with His-tag (natural protein)
stoichiometry N [5]: 2

B1: C4/G12 to T/A (dsDNA)
DNA 1: ATACGATAGTTACTATCGTAT
DNA 2: ATACGATAGTAACTATCGTAT
Kd (DriD WT [6]): 962 ± 182 nM

B2: position 3/13 mutant (T3/A13 to C/G in text) (dsDNA)
DNA 1: ATACGGCAGTTACTGCCGTAT
DNA 2: ATACGGCAGTAACTGCCGTAT
Kd (DriD WT [6]): 7.1 ± 0.9 nM

B3: GC-rich center mutant (dsDNA)
DNA 1: ATACGACGGCCGCCGTCGTAT
DNA 2: ATACGACGGCGGCCGTCGTAT
binding signal (DriD WT [7]): 20 fold reduction vs WT site

B4: driD promoter 21 bp site (FP) (dsDNA)
DNA 1: ATACGACAGTTACTGTCGTAT
DNA 2: ATACGACAGTAACTGTCGTAT
binding signal (DriD(E40K)): 83 fold reduction vs WT protein
binding signal (DriD(E40A)): 7 fold reduction vs WT protein
Kd (DriD(L10E)): 120 ± 23.6 nM
Kd (DriD WT [6]): 1.6 ± 0.04 nM
Kd (DriD(V73P-F74P)): 133 ± 10.4 nM
Kd (DriD(T61A-K62A)): 1200 ± 200 nM

B5: C1/G15 to T/A (dsDNA)
DNA 1: ATATGACAGTTACTGTCATAT
DNA 2: ATATGACAGTAACTGTCATAT
Kd (DriD WT [6]): 6.9 ± 1.7 nM

B6: G2/C14 to A/T (dsDNA)
DNA 1: ATACAATAGTTACTATTGTAT
DNA 2: ATACAATAGTAACTATTGTAT
Kd (DriD WT [6]): 512 ± 227 nM

B7: 7mer ssDNA effector (ssDNA)
DNA: TGTCTAT
binding result (DriD WT [8]): binds
